Results: publication PMC2995781

Columns and labels:
[1] = target: surfactant protein A (SP-A) in human broncho-alveolar lavage fluid (human (endogenous in BAL fluid)) (UniProt Q8IWL2); assay: latex bead agglutination (light microscopy); whole serum or BAL sample; streptavidin latex beads with biotinylated rabbit anti-goat antibody and goat anti-human SP-A antibody (N19); Hank solution, 6.5 mM Ca2+, 3 h at 4°C on a microscope slide; size of the biggest agglutinate in pixel
[2] = target: surfactant protein A (SP-A) in human serum (human (endogenous in serum)) (UniProt Q8IWL2); assay: as above

Substance	size of the agglutinates [1] [pixel]	size of the agglutinates [2] [pixel]
surfactant protein A (SP-A) in human broncho-alveolar lavage fluid (from UniProt Q8IWL2 21-248) (natural protein)	1060	
surfactant protein A (SP-A) in human serum (from UniProt Q8IWL2 21-248) (natural protein)		1360
